Experimental data reported in publication PMC5959852 (2018).

Biological target: T1, Hif-1α CAD (Homo sapiens, UniProt Q16665)
T1 chain: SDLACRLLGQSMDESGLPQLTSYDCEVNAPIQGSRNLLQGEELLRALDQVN
Assay: stopped-flow

B1: CBP TAZ1 (protein)
chain: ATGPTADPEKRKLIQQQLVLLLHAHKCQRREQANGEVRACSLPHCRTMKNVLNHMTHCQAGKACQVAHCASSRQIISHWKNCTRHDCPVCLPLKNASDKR
B1 showed a Kd of 3.4 nM.
